# Data from article PMC6562043 (Scientific Reports, 2019).
# B1: human PrP^C (transgene of TgHuPrP mice) (natural protein)
# chain: not shown
# Biological target: T1, synthesized human Aβ42 peptide (human, UniProt P05067 672-713)
# T1 construct: also called Aβ peptide
# Assay: ELISA
# Conditions: one partner purified
binder,measurement,value
B1,"binding relative to mouse PrP^C, corrected for PrP expression",177 ± 9.5%
